{"source": "patent US20240239860A1", "about": "(University of Pennsylvania, published 2024)", "binders": {"B1": {"name": "thio GLP-1 (GLP-1 7-36 with a thioamide at the Ala8-Glu9 scissile bond) (peptide)", "peptide": "HXEGTFTSDVSSYLEGQAAKEFIAWLVKGR", "modifications": "thioamide (C=S in place of C=O) at Ala8 (second residue of the peptide), i.e. the bond between Ala8 and Glu9; printed HA*EGTF...", "notes": "C-terminal amide is called optional; also called GLP-1-A^s8; thioamide-modified GLP-1"}}, "biological_target": "T1, dipeptidyl peptidase 4 (DPP-4) (UniProt P27487 39-766, limits assumed)", "T1 construct": "also called adenosine deaminase complexing protein 2; CD26", "T1 sequence (P27487 39-766 limits assumed)": "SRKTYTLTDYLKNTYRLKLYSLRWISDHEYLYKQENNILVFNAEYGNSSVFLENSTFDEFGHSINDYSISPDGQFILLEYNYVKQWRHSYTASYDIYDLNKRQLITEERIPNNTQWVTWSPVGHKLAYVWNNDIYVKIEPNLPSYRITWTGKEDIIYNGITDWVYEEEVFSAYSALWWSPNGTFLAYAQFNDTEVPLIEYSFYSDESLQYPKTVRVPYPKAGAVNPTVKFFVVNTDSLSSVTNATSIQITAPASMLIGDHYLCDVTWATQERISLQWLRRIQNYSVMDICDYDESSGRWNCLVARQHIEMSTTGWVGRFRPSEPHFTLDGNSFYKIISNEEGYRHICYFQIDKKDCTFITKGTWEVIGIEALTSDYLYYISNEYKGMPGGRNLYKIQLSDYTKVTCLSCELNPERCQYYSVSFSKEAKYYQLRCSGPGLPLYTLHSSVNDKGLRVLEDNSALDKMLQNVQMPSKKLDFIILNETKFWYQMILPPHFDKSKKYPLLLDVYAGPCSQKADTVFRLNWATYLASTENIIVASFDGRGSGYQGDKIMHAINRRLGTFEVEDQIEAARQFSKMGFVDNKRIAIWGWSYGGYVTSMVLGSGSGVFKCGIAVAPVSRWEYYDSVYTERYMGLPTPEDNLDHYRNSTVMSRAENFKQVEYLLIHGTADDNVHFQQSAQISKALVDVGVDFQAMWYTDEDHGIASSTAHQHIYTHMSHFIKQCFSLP", "assay": "inhibition of DPP-4 cleavage of the chromogenic substrate Gly-Pro-pNA"}
{"binder": "B1", "values": [{"measurement": "binding result", "result": "no binding (tested: 100 µM)"}]}
